One molecule from US20230331811A1 (CCOA THERAPEUTICS, published 2023) can be followed below.

Assay [1] has as its target T1, Recombinant human ectodomain αIIbβ3, activated (high-affinity ligand binding conformation) (human, UniProt P08514 32-993; P05106 27-718, carboxyl groups coupled to the DETA silane layer by EDC/sulfo-NHS).
T1 construct: Also used here for the ELISA plate coated in a buffer with the same cations
Nature of the assay: sandwich ELISA, αIIbβ3 coated on a 96-well plate in a buffer with Mg2+, Mn2+ and Ca2+ (anti-fibrinogen mouse IgG, anti-mouse IgG-HRP). On the procedure: Fibrinogen ELISA Assay. To ensure similar immobilization levels of recombinant human ectodomain aIIbβ3 between the ELISA plate and integrin coupled magnetic beads, the wells of a 96-well micro plate (Nunc MaxiSorp) were incubated with the same aIIbβ3 concentration per surface area as during the preparation of the magnetic beads, 6.6×10⁴ μg·mL⁻¹·c⁻². Each well was coated with aIIbβ3 or control proteins (BSA and β3−/− platelet lysate) by incubation of 6 μg/μL protein in binding buffer (TRIS buffered saline with 0.05% TWEEN-20 and 1 mM each of MgCl₂, MnCl₂ and CaCl₂)) at 4° C. overnight. Incubation of 3% skim milk (ED Millipore) and 2% TWEEN-20 for 1 hour at 37° C. was used for blocking. The concentration of aIIbβ3 per surface area of bead used when coating SAM coated beads is 6.6×10⁴ μg·mL⁻¹·cm⁻², therefore the wells of 96 well plates used were coated with the same density EDC/NHS quenching achieved by increase pH to 8.6. Bead concentration for synthesis: 6×10⁹ beads·mL⁻¹; Integrin-bead reaction concentration=250 μg·mL⁻¹; Integrin Used=6.6×10⁴ μg·mL⁻¹·cm⁻²; Well Surface Area (50 μL)=0.93 cm²; Concentration/wee for ELISA=6×10⁴ μg·mL⁻¹ (6 μL/well in 50 μL total volume); Stock [αIIbβ3]=5×10⁵ μg·mL⁻¹.
Fibrinogen binding. […] The OPD peroxidase reaction was stopped after 1 hour with 2 M H₂SO₄ and the absorbance was read at 492 nm. […]
(In an ELISA, binding on a coated surface is turned into a signal by an enzyme label.)

Assay [2] concerns the target T1, Recombinant human ectodomain αIIbβ3, …. Nature of the assay: flow cytometry dose-response of Alexa488-fibrinogen on activated αIIbβ3 beads, DETA signal subtracted, one site specific binding fit. The method, then: 3 μL of 1×10⁸ beads/mL were mixed with the desired concentration of fluorescently labelled antibody or ligand to a final volume of 100 μL in PBS and incubated for 1 h. Following incubation, the samples were diluted to a final volume of 1 mL and flow cytometrically analyzed. Samples that were compared with one another were run on the same instrument under the same instrumental conditions (signal gain, flow rate etc.). Any differences in absolute mean fluorescence intensity (MFI) value between different experiments was due to variance between the two.
αIIbβ3 Coupled Bead Flow Cytometry Analysis. […] Ferromagnetic silica particles at each stage of the coating fabrication process were analyzed with flow cytometry for binding to (FIGS. 2A and 2B) PSI E1, and (FIG. 2C to 2F) fibrinogen. […] After the activation step, the beads were analyzed with flow cytometry for binding of Alexa488™ labelled fibrinogen (native αIIbβ3 ligand) and PAC-1 (an antibody specific for the active upright conformation of αIIbβ3) (See Table 2, FIGS. 2G to 2I). […] All analyses conducted as n≥3, data presented as mean±SD, analyzed with a two-tailed t-test, ns=not significant *P<0.05, **P<0.01, ***P<0.001 and ****P<0.0001.
On the technique in general: In flow cytometry, cells or beads pass a laser one at a time.

The target is the same in assay [3]. Description: flow cytometry sandwich assay on αIIbβ3 coupled beads (anti-fibrinogen mouse IgG, FITC-labelled detection antibody), apparent Kd.

T1 sequence (P08514 other isoform, or with tags, fused parts or gaps limits assumed, chain 1 of 2): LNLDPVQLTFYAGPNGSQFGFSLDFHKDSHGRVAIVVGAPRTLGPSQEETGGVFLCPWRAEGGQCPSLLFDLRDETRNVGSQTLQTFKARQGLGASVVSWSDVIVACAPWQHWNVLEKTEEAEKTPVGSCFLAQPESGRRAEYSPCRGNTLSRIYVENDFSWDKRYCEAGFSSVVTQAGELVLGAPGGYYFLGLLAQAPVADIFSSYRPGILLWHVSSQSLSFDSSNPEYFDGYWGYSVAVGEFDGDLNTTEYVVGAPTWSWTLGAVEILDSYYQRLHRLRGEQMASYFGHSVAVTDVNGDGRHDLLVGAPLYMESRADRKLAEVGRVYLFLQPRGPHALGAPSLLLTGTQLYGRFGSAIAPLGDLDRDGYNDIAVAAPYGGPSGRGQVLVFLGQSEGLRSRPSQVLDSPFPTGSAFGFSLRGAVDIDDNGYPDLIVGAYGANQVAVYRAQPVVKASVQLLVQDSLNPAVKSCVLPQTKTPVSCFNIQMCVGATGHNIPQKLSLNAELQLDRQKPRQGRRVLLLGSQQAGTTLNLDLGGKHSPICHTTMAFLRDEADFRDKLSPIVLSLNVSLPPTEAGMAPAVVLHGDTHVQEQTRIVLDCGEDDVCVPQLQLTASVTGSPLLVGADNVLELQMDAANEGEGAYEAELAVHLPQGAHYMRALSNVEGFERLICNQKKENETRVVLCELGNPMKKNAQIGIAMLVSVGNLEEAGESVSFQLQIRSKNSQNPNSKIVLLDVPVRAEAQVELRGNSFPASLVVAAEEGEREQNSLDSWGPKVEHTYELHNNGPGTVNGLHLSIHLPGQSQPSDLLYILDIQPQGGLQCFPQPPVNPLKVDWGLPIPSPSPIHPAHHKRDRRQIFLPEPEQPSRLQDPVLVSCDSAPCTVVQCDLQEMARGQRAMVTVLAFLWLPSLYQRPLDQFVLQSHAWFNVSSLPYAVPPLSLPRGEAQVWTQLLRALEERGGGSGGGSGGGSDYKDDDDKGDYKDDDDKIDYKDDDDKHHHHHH
T1 sequence (P05106 other isoform, or with tags, fused parts or gaps limits assumed, chain 2 of 2): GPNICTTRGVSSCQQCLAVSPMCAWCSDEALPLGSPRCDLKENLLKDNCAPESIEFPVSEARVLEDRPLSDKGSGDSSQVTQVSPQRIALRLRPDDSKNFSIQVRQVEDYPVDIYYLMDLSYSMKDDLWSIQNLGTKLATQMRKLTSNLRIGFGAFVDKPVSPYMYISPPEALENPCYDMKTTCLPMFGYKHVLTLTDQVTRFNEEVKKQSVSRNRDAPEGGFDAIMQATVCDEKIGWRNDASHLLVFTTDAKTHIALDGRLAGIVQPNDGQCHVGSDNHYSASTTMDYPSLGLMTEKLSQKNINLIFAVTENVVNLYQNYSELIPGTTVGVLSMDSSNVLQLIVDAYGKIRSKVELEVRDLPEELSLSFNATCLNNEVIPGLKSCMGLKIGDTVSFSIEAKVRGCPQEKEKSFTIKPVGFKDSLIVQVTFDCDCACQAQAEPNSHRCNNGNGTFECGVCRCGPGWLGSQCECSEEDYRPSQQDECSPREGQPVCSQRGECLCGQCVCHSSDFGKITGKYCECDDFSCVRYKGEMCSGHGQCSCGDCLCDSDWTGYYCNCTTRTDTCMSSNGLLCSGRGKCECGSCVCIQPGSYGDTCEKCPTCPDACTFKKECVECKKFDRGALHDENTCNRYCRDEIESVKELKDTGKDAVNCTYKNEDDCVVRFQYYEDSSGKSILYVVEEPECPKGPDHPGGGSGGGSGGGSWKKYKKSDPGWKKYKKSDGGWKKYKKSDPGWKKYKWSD

B1: Fibrinogen (ligand)
alpha: ADSGEGDFLAEGGGVRGPRVVERHQSACKDSDWPFCSDEDWNYKCPSGCRMKGLIDEVNQDFTNRINKLKNSLFEYQKNNKDSHSLTTNIMEILRGDFSSANNRDNTYNRVSEDLRSRIEVLKRKVIEKVQHIQLLQKNVRAQLVDMKRLEVDIDIKIRSCRGSCSRALAREVDLKDYEDQQKQLEQVIAKDLLPSRDRQHLPLIKMKPVPDLVPGNFKSQLQKVPPEWKALTDMPQMRMELERPGGNEITRGGSTSYGTGSETESPRNPSSAGSWNSGSSGPGSTGNRNPGSSGTGGTATWKPGSSGPGSTGSWNSGSSGTGSTGNQNPGSPRPGSTGTWNPGSSERGSAGHWTSESSVSGSTGQWHSESGSFRPDSPGSGNARPNNPDWGTFEEVSGNVSPGTRREYHTEKLVTSKGDKELRTGKEKVTSGSTTTTRRSCSKTVTKTVIGPDGHKEVTKEVVTSEDGSDCPEAMDLGTLSGIGTLDGFRHRHPDEAAFFDTASTGKTFPGFFSPMLGEFVSETESRGSESGIFTNTKESSSHHPGIAEFPSRGKSSSYSKQFTSSTSYNRGDSTFESKSYKMADEAGSEADHEGTHSTKRGHAKSRPVRGIHTSPLGKPSLSP
beta: QGVNDNEEGFFSARGHRPLDKKREEAPSLRPAPPPISGGGYRARPAKAAATQKKVERKAPDAGGCLHADPDLGVLCPTGCQLQEALLQQERPIRNSVDELNNNVEAVSQTSSSSFQYMYLLKDLWQKRQKQVKDNENVVNEYSSELEKHQLYIDETVNSNIPTNLRVLRSILENLRSKIQKLESDVSAQMEYCRTPCTVSCNIPVVSGKECEEIIRKGGETSEMYLIQPDSSVKPYRVYCDMNTENGGWTVIQNRQDGSVDFGRKWDPYKQGFGNVATNTDGKNYCGLPGEYWLGNDKISQLTRMGPTELLIEMEDWKGDKVKAHYGGFTVQNEANKYQISVNKYRGTAGNALMDGASQLMGENRTMTIHNGMFFSTYDRDNDGWLTSDPRKQCSKEDGGGWWYNRCHAANPNGRYYWGGQYTWDMAKHGTDDGVVWMNWKGSWYSMRKMSMKIRPFFPQQ
gamma: YVATRDNCCILDERFGSYCPTTCGIADFLSTYQTKVDKDLQSLEDILHQVENKTSEVKQLIKAIQLTYNPDESSKPNMIDAATLKSRKMLEEIMKYEASILTHDSSIRYLQEIYNSNNQKIVNLKEKVAQLEAQCQEPCKDTVQIHDITGKDCQDIANKGAKQSGLYFIKPLKANQQFLVYCEIDGSGNGWTVFQKRLDGSVDFKKNWIQYKEGFGHLSPTGTTEFWLGNEKIHLISTQSAIPYALRVELEDWNGRTSTADYAMFKVGPEADKYRLTYAYFAGGDAGDAFDGFDFGDDPSDKFFTSHNGMQFSTWDNDNDKFEGNCAEQDGSGWWMNKCHAGHLNGVYYQGGTYSKASTPNGYDNGIIWATWKTRWYSMKKTTMKIIPFNRLTIGEGQQHHLGGAKQAGDV
modifications: Alexa 488 dye on lysines (positions not stated) in the results at the 2nd table and paragraph 103; unlabelled in the sandwich assay of paragraph 112. The native protein is a disulfide-linked dimer of the three chains; each chain is given once.
notes: It calls the protein 'bivalent fibrinogen'; also called Fg; Alexa488 labelled fibrinogen
For the molecule B1, the Kd in assay [1] amounted to 2200 nM; in assay [2] it was 78 nM; in assay [3] it was 210 nM.
